In patent US20100150906A1 (AC IMMUNE S A, published 2010):
Positions count from the first letter of the chain named. Blank lines part the entries; values can stand above or below the binder they belong to.

Columns and labels:
[1] = target: T1, Amyloid Beta (antigen of the Amyloid Beta ELISA) (UniProt P05067 672-713, limits assumed); experiment: Amyloid Beta ELISA, conditioned medium from transient transfection
[2] = target: T1, Amyloid Beta (antigen of the Amyloid …); experiment: Amyloid Beta ELISA, purified antibodies
[3] = target: T2, amyloid beta 1-42 monomers (UniProt P05067 672-713); experiment: SPR (BIACORE), Aβ1-42 monomers immobilized on CM5 chip, antibody 0.05-1.0 µM
T2 construct: domain: amyloid beta 1-42; also called Aβ1-42 monomers; amyloid monomers
T2 sequence (P05067 672-713 limits assumed): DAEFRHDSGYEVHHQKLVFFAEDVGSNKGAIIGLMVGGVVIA
Experimental: (§1) BIACORE® technology utilizes changes in the refractive index at the surface layer upon binding of the antibody to the antigen immobilized on the layer. Binding is detected by surface plasmon resonance (SPR) of laser light refracting from the surface. Analysis of the signal kinetics on rate and off rate allows the discrimination between non-specific and specific interaction. The concentration of antibody used was in the range of 0.05 μM to 1.0 μM.

[4] = target: T3, amyloid beta 1-42 fibers (UniProt P05067 672-713); experiment: SPR (BIACORE), Aβ1-42 fibers immobilized on CM5 chip, antibody 0.05-1.0 µM
T3 construct: domain: amyloid beta 1-42; Many copies per fiber; also called Aβ1-42 fibers; fibrillar Aβ1-42
T3 sequence (P05067 672-713 limits assumed): as above
Experimental: as §1

T1 sequence (P05067 672-713 limits assumed): as above

binding result [1]: no binding
B1: C2 HuVH AF version 3 combined with the chimeric C2 kappa chain (antibody, V domains shown)
VH: EVQLVESGGGLVQPGGSLRLSCAASGFTFSSYGMSWVRQAPGKGLELVASINSNGGSTYYPDSVKGRFTISRDNAKNSLYLQMNSLRAEDTAVYYCARGDYWGQGTTVTVSS
VL: DVVMTQTPLSLPVSLGDQASISCRSSQSLVYSNGDTYLHWYLQKPGQSPKLLIYKVSNRFSGVPDRFSGSGSGTDFTLKISRVEAEDLGVYFCSQSTHVPWTFGGGTKLEIK
notes: Transient expression in HEK293; also called C2HuVHAF3/ChVK

fold reduction of binding activity against chimeric control antibody C2 ChVHAF/ChVK [2]: ~2 fold
B2: humanized antibody C2 HuVH2/HuVK3 (antibody, human IgG4 S228P, kappa, V domains shown)
VH: B1 VH with L47W, R98S
VL: DIVMTQSPLSLPVTPGEPASISCRSSQSLVYSNGDTYLHWYLQKPGQSPKLLIYKVSNRFSGVPDRFSGSGSGTDFTLKISRVEAEDVGVYYCSQSTHVPWTFGQGTKVEIKR
notes: also called C2HuVHAF2 with C2HuVK3

Kd [3]: 19 nM
koff [3]: 0.00095 s⁻¹
kon [3]: 50000 M⁻¹ s⁻¹
Kd [4]: 4.7 nM
koff [4]: 0.00023 s⁻¹
kon [4]: 49000 M⁻¹ s⁻¹
B3: humanized antibody C2HuVH4/HuVK1 (antibody, human IgG4 S228P, kappa, V domains shown)
VH: B1 VH with R98S
VL: B2 VL with K50Q
notes: also called H4K1; humanized H4K1

Kd [3]: 20 nM
koff [3]: 0.00095 s⁻¹
kon [3]: 47000 M⁻¹ s⁻¹
Kd [4]: 6.5 nM
koff [4]: 0.00033 s⁻¹
kon [4]: 51000 M⁻¹ s⁻¹
B4: chimeric antibody C2 ChVH AF/ChVK (antibody, human IgG4 S228P, kappa, V domains shown)
VH: EVQLVESGGGLVQPGGSLKLSCAASGFTFSSYGMSWVRQTPDKRLELVASINSNGGSTYYPDSVKGRFTISRDNAKNTLYLQMSSLKSEDTAMYYCASGDYWGQGSTLTVSS
VL: B2 VL with I2V, S7T, T14S, P15L, E17D, P18Q, V88L, Y92F, Q105G, V109L
notes: also called C2 VH AF/C2 VK chimeric antibody; chimeric AF
